Data reported in article doi:10.1101/2022.05.31.494233 (bioRxiv, 2022).
Ends that are not written are not given here. * marks the point of attachment. Myristoyl = CCCCCCCCCCCCCC(=O)*

Columns and labels:
Assay in all cases: SPR
myrUSH3 D10R = biological target: myrUSH3 D10R
myrUSH3 K5A = biological target: myrUSH3 K5A
myrUSH3 K7A = biological target: myrUSH3 K7A
[1] = biological target: myristoylated Src N-terminal Regulatory Element (SNRE) of c-Src, wild type
SPR = biological target: the molecule itself

Molecule: myrUSH3 D10R (domain or fragment)
- fold increase of dimerization relative to WT (myrUSH3 D10R): 6 fold

Molecule: myrUSH3 K5A (domain or fragment)
- reduction of dimer formation relative to WT (myrUSH3 K5A): 50%
- reduction of the dimer population relative to WT at the same protein density (myrUSH3 K5A): 50%

Molecule: myrUSH3 K7A (domain or fragment)
- reduction of dimer formation relative to WT (myrUSH3 K7A): 50%
- reduction of the dimer population relative to WT at the same protein density (myrUSH3 K7A): 40%

Molecule: myristoylated Src N-terminal Regulatory Element (SNRE) of c-Src, wild type (domain or fragment)
- stoichiometry N [1]: 2

Molecule: Myristoyl-GSNKSKPKDASQRRR (peptide, UniProt P12931-1 2-16, looked up) [myristoylated synthetic peptide with residues 2-16 of c-Src (entire SH4 domain), wild type]
- binding result (SPR): binds

Molecule: Myristoyl-GSNRSRPRDASQRRR (peptide, UniProt P12931 2-16, looked up) [myrSH4 R5R7R9 (triple arginine)]
- binding result (SPR): binds
